Laboratory results published in patent publication US20110123544A1 (published 2011).
Values belong to the binder of their own block, whether it stands above or below them.

Key:
[1] = biological target: T1, human IL-12 (recombinant human IL-12, p70 heterodimer of p35 and p40) (human, UniProt P29459 23-219; P29460 23-328); assay: cell-based or functional assay
T1 sequence (looked up) 1: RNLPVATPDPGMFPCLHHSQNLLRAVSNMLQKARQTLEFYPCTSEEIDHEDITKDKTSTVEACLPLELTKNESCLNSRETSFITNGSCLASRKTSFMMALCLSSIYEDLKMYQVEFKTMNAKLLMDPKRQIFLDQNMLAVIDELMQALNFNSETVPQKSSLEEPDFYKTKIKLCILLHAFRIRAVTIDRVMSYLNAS
T1 sequence (looked up) 2: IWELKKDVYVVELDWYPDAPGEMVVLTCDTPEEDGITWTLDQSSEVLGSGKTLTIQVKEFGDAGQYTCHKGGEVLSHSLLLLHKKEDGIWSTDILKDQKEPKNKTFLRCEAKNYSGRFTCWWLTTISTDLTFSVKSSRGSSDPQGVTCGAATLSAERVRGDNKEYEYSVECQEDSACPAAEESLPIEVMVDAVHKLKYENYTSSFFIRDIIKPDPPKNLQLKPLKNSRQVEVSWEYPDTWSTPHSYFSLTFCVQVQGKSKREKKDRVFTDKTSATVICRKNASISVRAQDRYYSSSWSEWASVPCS

[2] = biological target: human IL-12 (recombinant human IL-12, p70 heterodimer of p35 and p40) (human) (UniProt P29459); assay: BIAcore SPR, IL-12 chip
[3] = biological target: human IL-12 (recombinant human IL-12, p70 heterodimer of p35 and p40) (human) (UniProt P29459); assay: RB assay: 125I-hIL-12 binding to PHA blasts
[4] = biological target: T2, recombinant human IL-12 (rhIL-12) (human, UniProt P29459 23-219; P29460 23-328); assay: cell-based or functional assay
T2 sequence (looked up) 1: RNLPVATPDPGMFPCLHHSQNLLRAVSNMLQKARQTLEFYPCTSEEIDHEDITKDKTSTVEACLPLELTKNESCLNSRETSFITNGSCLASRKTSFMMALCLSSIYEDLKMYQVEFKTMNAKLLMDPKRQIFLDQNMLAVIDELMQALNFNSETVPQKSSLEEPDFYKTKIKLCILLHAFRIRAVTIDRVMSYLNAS
T2 sequence (looked up) 2: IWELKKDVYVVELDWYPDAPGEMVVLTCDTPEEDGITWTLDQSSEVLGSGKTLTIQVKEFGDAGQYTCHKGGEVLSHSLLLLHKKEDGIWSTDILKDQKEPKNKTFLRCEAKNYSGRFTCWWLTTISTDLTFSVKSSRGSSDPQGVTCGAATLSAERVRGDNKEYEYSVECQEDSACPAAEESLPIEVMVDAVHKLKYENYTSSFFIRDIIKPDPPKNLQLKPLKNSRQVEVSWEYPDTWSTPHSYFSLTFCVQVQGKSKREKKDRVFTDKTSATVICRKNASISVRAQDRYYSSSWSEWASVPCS

[5] = biological target: human IL-12 (recombinant human IL-12, p70 heterodimer of p35 and p40) (human) (UniProt P29459); assay: cell-based or functional assay
[6] = biological target: T3, recombinant human interleukin 12 (p40/p35 heterodimer) (human, UniProt P29460 23-328; P29459 23-219); assay: surface plasmon resonance (BIAcore)
T3 construct: Disulfide-linked heterodimer; also called human IL-12; hIL-12
T3 sequence (looked up) 1: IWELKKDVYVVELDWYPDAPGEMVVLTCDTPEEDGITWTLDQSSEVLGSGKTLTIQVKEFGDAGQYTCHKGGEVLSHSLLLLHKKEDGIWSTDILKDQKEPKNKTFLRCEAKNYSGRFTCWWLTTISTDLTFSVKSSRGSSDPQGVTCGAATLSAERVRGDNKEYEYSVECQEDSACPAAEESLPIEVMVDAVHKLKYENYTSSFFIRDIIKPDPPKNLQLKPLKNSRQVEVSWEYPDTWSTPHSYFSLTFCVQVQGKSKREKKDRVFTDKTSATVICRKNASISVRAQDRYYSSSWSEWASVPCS
T3 sequence (looked up) 2: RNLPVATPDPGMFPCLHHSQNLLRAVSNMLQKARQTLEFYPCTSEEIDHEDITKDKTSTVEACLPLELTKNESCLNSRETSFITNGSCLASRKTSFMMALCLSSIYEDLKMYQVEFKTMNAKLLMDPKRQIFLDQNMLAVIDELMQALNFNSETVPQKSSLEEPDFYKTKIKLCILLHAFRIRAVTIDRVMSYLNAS

[7] = biological target: T3, recombinant human interleukin 12 …; assay: IL-12 receptor binding assay (RBA): inhibition of labelled IL-12 binding to PHA blasts
[8] = biological target: T4, recombinant rhesus IL-12 (rhesus monkey, UniProt P48095 23-328; P48091 23-219); assay: neutralisation bioassays with purified rhesus IL-12
T4 construct: Obtained from Emory University School of Medicine
T4 sequence (looked up) 1: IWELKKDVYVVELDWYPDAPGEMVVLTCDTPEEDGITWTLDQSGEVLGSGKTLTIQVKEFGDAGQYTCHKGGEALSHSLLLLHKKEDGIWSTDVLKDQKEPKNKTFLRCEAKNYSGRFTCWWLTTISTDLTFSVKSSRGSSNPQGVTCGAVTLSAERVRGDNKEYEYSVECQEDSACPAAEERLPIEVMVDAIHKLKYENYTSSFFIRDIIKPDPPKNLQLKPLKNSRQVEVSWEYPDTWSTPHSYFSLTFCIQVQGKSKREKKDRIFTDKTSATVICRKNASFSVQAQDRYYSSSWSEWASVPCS
T4 sequence (looked up) 2: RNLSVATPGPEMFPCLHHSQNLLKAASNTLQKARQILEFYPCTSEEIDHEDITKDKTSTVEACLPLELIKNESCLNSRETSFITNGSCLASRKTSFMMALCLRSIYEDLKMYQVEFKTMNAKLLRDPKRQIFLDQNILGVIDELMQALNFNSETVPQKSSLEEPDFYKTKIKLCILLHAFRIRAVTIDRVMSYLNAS

[9] = biological target: T5, recombinant murine IL-12 (mouse, UniProt P43432 23-335; P43431 23-215); assay: neutralisation bioassay with purified murine IL-12 (2D6 cell proliferation)
T5 construct: R&D Systems Cat. No. 419-ML in the BIAcore test; 'purified murine IL-12' in the bioassays; also called mouse IL-12; rmIL12
T5 sequence (looked up) 1: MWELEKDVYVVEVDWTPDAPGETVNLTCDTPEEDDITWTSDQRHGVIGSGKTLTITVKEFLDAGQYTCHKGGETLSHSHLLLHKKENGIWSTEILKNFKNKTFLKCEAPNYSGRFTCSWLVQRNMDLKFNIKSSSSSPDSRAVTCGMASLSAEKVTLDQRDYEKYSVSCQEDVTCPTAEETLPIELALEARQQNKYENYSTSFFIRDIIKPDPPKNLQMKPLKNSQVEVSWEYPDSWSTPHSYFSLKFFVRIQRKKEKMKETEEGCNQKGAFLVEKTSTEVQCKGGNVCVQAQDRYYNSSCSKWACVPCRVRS
T5 sequence (looked up) 2: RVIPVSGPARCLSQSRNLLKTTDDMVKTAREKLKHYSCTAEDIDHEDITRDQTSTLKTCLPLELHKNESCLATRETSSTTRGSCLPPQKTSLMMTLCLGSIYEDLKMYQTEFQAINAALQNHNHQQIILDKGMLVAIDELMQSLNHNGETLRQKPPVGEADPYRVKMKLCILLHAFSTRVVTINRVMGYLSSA

B1: 70-1 IgG1 (antibody, V domains shown)
VH: HGSHDN
VL: QSYDSSLRGSRV
- PHA assay IC50 [1]: 200 nM

B3: Y61 scFv (scFv, V domains shown)
VH: QVQLVQSGGGVVQPGRSLRLSCAASGFTFSSYGMHWVRQAPGKGLEWVAFIRYDGSNKYYADSVKGRFTISRDNSKNTLYLQMKSLRAEDTAVYYCKTHGSHDNWGQGTMVTVSS
VL: SYVLTQPPSVSGTPGQRVTISCSGGRSWIGSNTVKWYQQLPGTAPKLLIYGNDQRPSGVPDRFSGSKSGTSASLAITGVQAEDEADYYCQSYDRGTHPALLFGTGTKVTVLG
notes: Single-chain Fv; also called clone Y61
- koff [6]: ~0.0002 s⁻¹

The next lines start with the values.

- koff [2]: 0.00113 s⁻¹
- IC50 [3]: 0.9 nM
- PHA assay IC50 (M) p70:p40 1:0 [4]: 3.5e-09 M
- PHA assay IC50 (M) p70:p40 1:20 [4]: 2.5e-09 M
- PHA assay IC50 (M) p70:p40 1:50 [4]: 4e-09 M
- PHA assay IC50 [5]: 3 nM
B2: 149-7 (scFv, V domains shown)
VH: QVQLVQSGGGVVQPGRSLRLSCAASGFTFSSYGMHWVRQAPGKGLEWVAFIRYDGSNKYYADSVKGRFTISRDNSKNTLYLQMKSLRAEDTAVYYCTTHGSHDNWGQGTMVTVSS
VL: SYVLTQPPSVSGTPGQRVTISCSGGRSNIGSNTVKWYQQLPGTAPKLLIYGNDQRPSGVPDRFSGSKSGTSASLAITGVQAEDEADYYCQSYDRDFTGSRVFGTGTKVTVL

- IC50 [7]: 1000 nM
B4: Joe 9 wild type (scFv, V domains shown)
VH: QVQLVQSGGGVVQPGRSLRLSCAASGFTFSSYGMHWVRQAPGKGLEWVAFIRYDGSNKYYADSVKGRFTISRDNSKNTLYLQMKSLRAEDTAVYYCTTSGSYDYWGQGTMVTVSS
VL: SYVLTQPPSVSGTPGQRVTISCSGGRSNIGSNTVKWYQQLPGTAPKLLIYGNDQRPSGVPDRFSGSKSGTSASLAITGVQAEDEADYYCQSYDSSLRGSRVFGTGTKVTVL

- binding result [8]: binds
- binding result [9]: no binding
B5: J695 human anti-human IL-12 antibody (antibody, V domains shown)
VH: QVQLVESGGGVVQPGRSLRLSCAASGFTFSSYGMHWVRQAPGKGLEWVAFIRYDGSNKYYADSVKGRFTISRDNSKNTLYLQMNSLRAEDTAVYYCKTHGSHDNWGQGTMVTVSS
VL: QSVLTQPPSVSGAPGQRVTISCSGSRSNIGSNTVKWYQQLPGTAPKLLIYYNDQRPSGVPDRFSGSKSGTSASLAITGLQAEDEADYYCQSYDRYTHPALLFGTGTKVTVLG
notes: tested as human IgG1 with lambda light chain (detected with anti-human lambda); Made in CHO or COS cells; also called Y61-L94Y-L50Y IgG
